Experimental data: US20250034594A1, “RNA-GUIDED GENOME RECOMBINEERING AT KILOBASE SCALE” (THE BOARD OF TRUSTEES OF THE LELAND STANFORD JUNIOR …, priority 2021, published 2025)

Experiments:
Assay type in all cases: cell-based
[1] = tested on: gene editing with Cas9 and dCas9; experiment: Screen of 322 new SSAP proteins, activity across all experiments (Cas9 and dCas9, Table 5); parameters: scale not given here
Summary of the method: (§1)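 Read-out is gene editing activity. Candidates come from sequence data mining, are made synthetically, and are tested alongside either nuclease-active Cas9 or catalytically dead dCas9.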

gene editing with Cas9 = experiment: Screen of 322 new SSAP proteins, gene editing activity with Cas9 (Table 5); parameters: Cas9 with SSAP activity: scale not given here
Summary of the method: as §1

gene editing with dCas9 = experiment: Screen of 322 new SSAP proteins, gene editing activity with dCas9 (Table 5); parameters: dCas9 with SSAP activity: scale not given here
Summary of the method: as §1

B1: SSAP_207: SEQ ID NO: 376; Mycobacterium sp. 1245499.0 (protein, listed as Mycobacterium sp.)
chain: TTQPEYKPVAQGADKQMTTGKLLKMLEPEIGRALPKGMDPDRICRLVMTEVRKNPMLTQCTQESFAGALLTASALGLEPGVNGEAWLVPYRDRKRGIVECQFIMGYNGVAKLFWQSPHADRLDAQLVCANDHFRYVKGLSPILEHVESDGDRGDPIAYYAIVGVKGAQPMWDVFKPEAIAQLRGGRVGTKGDIDDPQRWMERKTALKQVLKLAPKSTRLDLAIRADERSGSDLYKSQGMEVHAIEPGFIETEAEPETQEQ
- Activity across all experiments [1]: −6.496
- Cas9 with SSAP activity (gene editing with Cas9): −4.938
- Cas9 with SSAP activity (normalized) (gene editing with Cas9): −0.798
- dCas9 with SSAP activity (gene editing with dCas9): −8.053
- dCas9 with SSAP activity (normalized) (gene editing with dCas9): −1.345

B2: SSAP_185: SEQ ID NO: 354; Pirellula sp. SH-Sr6A (protein, listed as Pirellula sp.)
chain: SEATKEAKPETAIAKKPNGIKDWLKSDALKTQIASVAPKHMAPERVMRIALNAVSRTPKLADCTPESFMRCLLDLSSWGLEPDGRHAHLIPYGTECTLVLDYKGLVTLAYRSGWVKKIHADVVFEGDIFVYSLGTVCQHIPWEFRDDANKPEHKGHFRAAYCVVTMADGIEKHEVMTASEIDAIKAKSRSGNSGPWKDHYTEMAKKTVYRRASKWLPLSPEQADAMERDDDRIIDAVSVAVTQRLSKAAMPLIGANETGDTE
- Activity across all experiments [1]: −5.013
- Cas9 with SSAP activity (gene editing with Cas9): −1.825
- Cas9 with SSAP activity (normalized) (gene editing with Cas9): −0.708
- dCas9 with SSAP activity (gene editing with dCas9): −8.201
- dCas9 with SSAP activity (normalized) (gene editing with dCas9): −2.012

B3: SSAP_201: SEQ ID NO: 370; Streptomyces reniochalinae (protein, listed as Streptomyces reniochalinae)
chain: SQISNAVAKRDNSPGAMVQQYKADFSTVLPDHVKPDTWVRLAQGVLRRDKNLAQAAERNPGSLMTALLDCARLGHEPGTESFYLVPFGGEVQGIEGYRGVVERMYRAGAIASVKAEVVCQGDDFDYQPDMDKPRHRVDWFGDRGPIVGAYAYAIFKDGSTSRVAVINRAYIDKVKKESKGSDRATSPWMKWEEQMVLKTVAKRLEPWVPTSNEWRREQLRAAREVANEPTPPTTPAPPAPEQVDPDTGEVIDGELVDDTPTQ
- Activity across all experiments [1]: −4.249
- Cas9 with SSAP activity (gene editing with Cas9): −0.461
- Cas9 with SSAP activity (normalized) (gene editing with Cas9): −0.195
- dCas9 with SSAP activity (gene editing with dCas9): −8.036
- dCas9 with SSAP activity (normalized) (gene editing with dCas9): −1.510

B4: SSAP_146: SEQ ID NO: 315; Mobilisporobacter senegalensis (protein, listed as Mobilisporobacter senegalensis)
chain: KDIKSALEKKVDKQDVKLTKSMSITDMIKALEPEIKKALPSVITPERFTRMALSAVNNTPKLAECSQMSFLAALMNAAQLGLEPNTSLGQAYLIPYQNKGKLECQFQLGFKGMIDLVYRNEKVQTIQAHCVYEEDYFEYELGLDSKLAHKPALANRGKMILVYAFFKLENGGFGFEVMSKEDIDIHALKYSKGYSSQYSPWKSNYEDMAKKTVIKKVLKYAPLKIDFQRAISVDETVKAEISIDMSEVQNEEIIDGQCTDVGEIEEK
- Activity across all experiments [1]: −5.040
- Cas9 with SSAP activity (gene editing with Cas9): −0.626
- Cas9 with SSAP activity (normalized) (gene editing with Cas9): −2.428
- dCas9 with SSAP activity (gene editing with dCas9): −9.454
- dCas9 with SSAP activity (normalized) (gene editing with dCas9): −1.210

B5: SSAP_284: SEQ ID NO: 453; Paenibacillus sp. VMFN-D1 (protein, listed as Paenibacillus sp.)
chain: AKALLENKLQERAAGASTPSTQGTSLKALLNSPAIKKRFDELLDKRSAQYMTSIVNLYNSDAMLQKAEPMSVISSCIVAATLDLPVDKNLGYAWIVPYSGKAQFQLGYKGYIQLALRTGQYKAINVIEVYEGELVKWNPLTEALELDFEKRKSDAVIGYAGYFELINGFRKSVYWTREQIESHRKKFSKSDFGWKKDYDAMAKKTIIRNMLSKWGILSIEMQDAYSKEIEAIPPLNNENEEDPPIDLTPEDYRVGDEPQDGKEQGEMNFE
- Activity across all experiments [1]: −4.873
- Cas9 with SSAP activity (gene editing with Cas9): −1.673
- Cas9 with SSAP activity (normalized) (gene editing with Cas9): −1.388
- dCas9 with SSAP activity (gene editing with dCas9): −8.073
- dCas9 with SSAP activity (normalized) (gene editing with dCas9): −1.172

B6: SSAP_83: SEQ ID NO: 252 (protein)
chain: TLQAVCPTQDKAVESQLDQTKFELIKRTICKGTTDDEFQLFIHACKRTGLDPFMRQIFAVKRWDSAERREVMTIQTGIDGYRLIADRTGRYAPGRDAEFGYDAHGGLRWAKAYVKKMTPDGHWHEISATAFWTEYVQTTKDGRPTVFWMKKGHVMLSKCAEALALRKTFPAELSGIYTQEEMAQTMSLPDTKGDSQTIGSDKAYEIERSIDNDPEFKTQLLTRLQRAFGCKSFSDLPQDQFKNVKKVIENHQIKEKIA
- Activity across all experiments [1]: −5.182
- Cas9 with SSAP activity (gene editing with Cas9): −0.905
- Cas9 with SSAP activity (normalized) (gene editing with Cas9): −1.189
- dCas9 with SSAP activity (gene editing with dCas9): −9.459
- dCas9 with SSAP activity (normalized) (gene editing with dCas9): −1.391

B7: SSAP_303: SEQ ID NO: 472; Paenibacillus sp. BK033 (protein, listed as Paenibacillus sp.)
chain: AANTQLITIHNNLEKLIEAKKDAMPQGFNKTRFIQNCMTVLQDTYGIEKCEPTTVARTLLKGAFLGLDFFNKECYAIPYGASMNFQTDYKGERKLAKKYSVRKVKDIYAKLVRAGDVFEENITDGQQTIQFAPVPFNNGDIVGAFAVVLFHDGGMLYETMSIAEMEHIKENYSKKSKDTGKFSKAWEVSTGEMYKKTVLRRLCKNIELDFDTIEQARAFEDAADVDFNKKTAPQQTSPLNVVEAEYEVVNDGSATEAQSE
- Activity across all experiments [1]: −3.683
- Cas9 with SSAP activity (gene editing with Cas9): 1.686
- Cas9 with SSAP activity (normalized) (gene editing with Cas9): 2.052
- dCas9 with SSAP activity (gene editing with dCas9): −9.053

B8: SSAP_177: SEQ ID NO: 346; Geomicrobium sp. JCM 19055 (protein, listed as Geomicrobium sp.)
chain: GYKGMIDLARRSGHIKSIYAHTVHANDEFEYELGLEPKLVHKPATGDRGNMEYAYAVAHFVDGGYQFEVFSHHDIEQVKKRSKAGNFGPWKTDYEEMAKKTVVRRMFKYLPISIEIQQHASQDETVRRDITEEAEKVDNIIDLPNYEDPNNIDVPDEEQDEQKDEKQKQQGSAEEIALDFK
- Activity across all experiments [1]: −0.236
- Cas9 with SSAP activity (gene editing with Cas9): −0.293
- Cas9 with SSAP activity (normalized) (gene editing with Cas9): −0.508
- dCas9 with SSAP activity (gene editing with dCas9): −0.179
- dCas9 with SSAP activity (normalized) (gene editing with dCas9): −0.069

B9: SSAP_33: SEQ ID NO: 202 (protein)
chain: TTNQVVTHKNFFNAPNVQKSFDDVWKGAGVQFATSILSVIQGNASLKSASNESIMTSAMKAAVLNLPIEPSLGRAYLVPYKGQVQFQLGYKGLIELAQRSGKYKSINAGPVYKSQFVSYDPLFEELTLDFTQPQDEVIGYFASFSLLNGFRKLTYWTKAEVEAHGKKFSKTFGNGPWKTDFDAMARKTVLKHILSIYGPLSVEMQTGMQNDESENDNATRDIKTAEPVNADQQLLEDLMNVDTETGEILEEVSELKDNGELDLKYEDPNAR
- Activity across all experiments [1]: −3.528
- Cas9 with SSAP activity (gene editing with Cas9): 1.307
- Cas9 with SSAP activity (normalized) (gene editing with Cas9): 0.578
- dCas9 with SSAP activity (gene editing with dCas9): −8.362
- dCas9 with SSAP activity (normalized) (gene editing with dCas9): −1.043

B10: SSAP_269: SEQ ID NO: 438; Candidatus Parcubacteria bacterium (protein)
chain: TEYKRPQQPEQTKMLSAKLNQAGAPNKVSSFDVQLRDWFKKHSRKMQTLAGSKEEANKIITSLIFVAQRNPKLMTCTMESIGECLMQSAQLKLYPGPLQECAYVPFGNRATFMPQYQGLCKLAYNSGVVRSIATEVVYANDLFEFELGTNAYLRHVPTLSDNRGERIAAWCVVKTTHGEVIIVKPISFIEGIRKRSPAGNKKDSPWNTSDDDYDAMARKTVLKQALKTIPKSSDLAAAIQVDNAVESGSVDNVVTHIEPVTDPTPEETKE
modifications: Candidatus Parcubacteria bacterium
- Activity across all experiments [1]: −8.768
- Cas9 with SSAP activity (gene editing with Cas9): −7.746
- Cas9 with SSAP activity (normalized) (gene editing with Cas9): −2.190
- dCas9 with SSAP activity (gene editing with dCas9): −9.789

B11: SSAP_118: SEQ ID NO: 287; Kribbella albertanoniae (protein, listed as Kribbella albertanoniae)
chain: ATADSVREELARSKEVERTQPKASNADNVIGLINRSLPEIAKALPGHVKPERIARIATTAVRVTPKLADCTQASFLGALLTAAQLGLEPNTPTGEAYLLPFGRNVQLIIGYRGYIKLANQSGQVRNIMAMTVYENDHFDYKYGSNPFLEHTPTLGQDPGPVKCWYACATFTNGGTNFVVLDKFKVEGYRARARSKDDGPWVTDYDAMARKTCIRRLAPYLPMSVELAQAMQVDEEVTAFTPGVSDPEVLATLAGVDTGTGEVQQ
- Activity across all experiments [1]: −9.467
- Cas9 with SSAP activity (gene editing with Cas9): −9.467
- dCas9 with SSAP activity (gene editing with dCas9): −9.467

B12: SSAP_124: SEQ ID NO: 293; Clostridium sp. AM58-1XD (protein, listed as Clostridium sp.)
chain: SVDVKNELEKRAAGTVNPAVKLTKNMTIVDMVRALEPEIKRALPTILTPERFMRMALSAINNTPELADCTPMSFIAALMNAAQLGMEPNTPLGQAYLIPYKNKGTLECQFQIGYKGLIDLAYRTGLIQVIQAQTVREFDSFEYQYGLDSRLTHRPGDGERGEITYIYGLFKLTNGGYGFEVSNKADMDAFAEKYSKSFGSRFSPWKENYEDMAKKTVIKRALKYAPVSSDFQKALSMDETIKSELSIDMSEIRNECQVEASGQEGAA
- Activity across all experiments [1]: −7.244
- Cas9 with SSAP activity (gene editing with Cas9): −5.698
- Cas9 with SSAP activity (normalized) (gene editing with Cas9): −1.064
- dCas9 with SSAP activity (gene editing with dCas9): −8.790

B13: SSAP_241: SEQ ID NO: 410; Antribacter gilvus (protein, listed as Antribacter gilvus)
chain: SADVVIRQHATELTSVLPSHLAEKGDGWLNAAVAAVRKDRNLWNAANSDPGAVMNALAEAARLGLQPGSKEYYLTVRGGKVLGIVGYQGEIELMYRAGAVSSVIVEPVFERDGFEYTPGVDDRPKHRIDWDADDRGPIRLAYAYAVMKDGAVSKVVVVNKTRIRRAKDASATAGKSHSPWTSDEVAMWMKTAAHDLAKWVPTSAEYIREQLRAVKEVEAEPARASDPRPEPVHIVEAQILDEDPFPNAPEDGAA
- Activity across all experiments [1]: −5.085
- Cas9 with SSAP activity (gene editing with Cas9): −0.640
- Cas9 with SSAP activity (normalized) (gene editing with Cas9): −3.561
- dCas9 with SSAP activity (gene editing with dCas9): −9.530
- dCas9 with SSAP activity (normalized) (gene editing with dCas9): −2.720
